Experimental findings from article doi:10.1101/2025.02.17.637997, “Phosphorylation-State Modulated Binding of HSP70: Structural Insights and Compensatory Protein Engineering” (bioRxiv, 2025) are described below.

What is called Kd is the concentration at which binding is half-saturated.

The subject of assay [1] is HSP70 steady-state levels in HEK-293 cells. In words: Cycloheximide chase of HSP70 steady-state levels, HEK-293. Format: cell-based. The settings on record: Flag immunoblot, representative, Fig. S1. As for the experimental part: HEK293 and COS-7 cells were acquired from the UNC Lineberger Comprehensive Cancer Center Tissue Culture Facility. Cultures were maintained in Dulbecco’s Modified Eagle Medium with 10% fetal bovine serum at 37 °C and 5% CO2. Using the manufacturers’ instructions, X-tremeGENE 9 was used to transfect cells with plasmid DNA except for NanoBiT constructs, in which case we used Lipofectamine 3000 (Thermo Fisher Scientific). Where indicated, twenty-four hours post-transfection, cells were treated with 20 μM MG-132 (Selleck Chemicals) for 6 h or 100 μM cycloheximide (Sigma-Aldrich) for the stated duration.
Samples were collected in a lysis buffer composed of 50 mM Tris-HCl (pH 7.4), 150 mM NaCl, 2 mM EDTA, and 1% Triton X-100, supplemented with 1X Halt protease and phosphatase inhibitor (Thermo Scientific). The samples were then sonicated and combined with Laemmli sample buffer (Bio-Rad). The lysates were resolved on 4–15% TGX Stain-Free gels (Bio-Rad) and transferred to PVDF membranes (Bio-Rad). The membranes were blocked in 5% milk and incubated with primary antibodies (Table S3) overnight at 4°C. Following this, HRP-conjugated secondary antibodies (Cell Signaling Technology) were applied. Detection was performed using Lumigen ECL Ultra (Lumigen, tma-100), and the blots were imaged with the ChemiDoc Imaging System (BioRad).
(In general: Immunoblotting shows a protein as a band on a membrane.)

For a further assay, the target named is T1, CHIP-TPR G132S (UniProt Q9UNE7 21-154, G132S).
T1 construct: CHIP, extended TPR domain, residues 21-154, with G132S; site modification control of the BLI experiment; also called CHIP-G132S
T1 sequence (looked up): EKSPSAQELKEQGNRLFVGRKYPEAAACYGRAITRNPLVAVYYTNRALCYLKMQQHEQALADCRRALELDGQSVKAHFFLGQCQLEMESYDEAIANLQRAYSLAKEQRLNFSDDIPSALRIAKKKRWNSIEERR
Kind of assay: BLI; BLItz, biotin peptides loaded on streptavidin sensors, TPR protein constructs at 1 to 25 μM; 20 mM HEPES, 150 mM NaCl, 5 mM β-mercaptoethanol, pH 7.2; Kd=koff/kon. As to conditions: both partners purified. For orientation: BLI is a label-free optical method that tracks binding on a fibre tip over time.

The target of the next assay is T2, CHIP-TPR N65S (UniProt Q9UNE7 21-154, N65S).
T2 construct: CHIP, extended TPR domain, residues 21-154, with N65S; control of the BLI experiment; also called CHIP-N65S
T2 sequence (looked up): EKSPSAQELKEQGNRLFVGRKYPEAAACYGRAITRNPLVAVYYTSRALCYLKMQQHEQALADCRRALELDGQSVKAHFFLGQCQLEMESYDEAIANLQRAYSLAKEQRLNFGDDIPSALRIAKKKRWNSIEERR
Described as above. As to conditions: both partners purified.

In assay [2] the target is T3, CHIP-TPR (21–154) (UniProt Q9UNE7 21-154).
T3 construct: also called extended TPR domain of CHIP
T3 sequence (looked up): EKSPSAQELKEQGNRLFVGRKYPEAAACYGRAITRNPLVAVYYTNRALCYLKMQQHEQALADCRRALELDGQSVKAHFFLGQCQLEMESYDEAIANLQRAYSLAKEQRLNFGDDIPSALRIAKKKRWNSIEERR
Kind of assay: crystal structure; CHIP-TPR co-crystallised with peptide at a 3:1 peptide:protein ratio, sitting drop vapor diffusion at room temperature; 0.2 M lithium sulfate, 0.1 M Tris-HCl, pH 8.5, 30% PEG 4000. The settings on record: both partners purified.

In the next assay the test system is HSC70. Kind of assay: Cell-free ubiquitination of HSC70 by CHIP. The settings on record: 100 nM Uba1, 1 μM UBE2D2, 200 nM Hsc70, 100 μM Ub, 1 μM CHIP, pH 8.0, 15 min, room temperature; three experiments; p = 0.0774; Fig. 1K. Format: biochemical, human. As for the experimental part: Ubiquitination assays were conducted using recombinant human HSC70, fluorescently tagged on its N-terminus. All assay components except ubiquitin were premixed on ice in a BSA-containing buffer (20 mM HEPES, pH 8.0; 200 mM NaCl; 0.5 mg/mL BSA). Reactions were initiated by adding ubiquitin and were allowed to proceed at room temperature unless specified otherwise. The reactions contained a final concentration of 100 nM Uba1, 1 μM UBE2D2, 200 nM Hsc70, 100 μM Ub, 5 mM MgCl2-ATP, and 1 μM CHIP. The reactions proceeded for 15 minutes before being quenched with SDS loading buffer. The quenched samples were separated by molecular weight via SDS-PAGE in non-reducing conditions using GenScript SurePAGE 4–12% gels. The CHIP-dependent ubiquitination of Hsc70 was visualized and quantified through fluorescent scanning on an Amersham Typhoon 5.

Assay [3] concerns the target recombinant full-length CHIP-G132N (UniProt Q9UNE7 1-303, G132N). Kind of assay: FP.
The target of assay [4] is T4, recombinant full-length CHIP-WT (UniProt Q9UNE7 1-303).
T4 chain: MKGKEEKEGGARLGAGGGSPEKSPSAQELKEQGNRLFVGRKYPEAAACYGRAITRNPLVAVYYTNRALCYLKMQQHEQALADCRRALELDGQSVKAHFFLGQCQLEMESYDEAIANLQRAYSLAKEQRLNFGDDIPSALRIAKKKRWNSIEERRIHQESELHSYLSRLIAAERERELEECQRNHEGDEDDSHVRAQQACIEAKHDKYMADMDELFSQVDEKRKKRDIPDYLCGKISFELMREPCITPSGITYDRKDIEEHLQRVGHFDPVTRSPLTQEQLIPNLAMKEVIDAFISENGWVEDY
Kind of assay: FP.

Assay [5] deals with T3, CHIP-TPR (21–154). Kind of assay: fluorescence polarisation; 20 nM N-terminally FITC-labelled peptide, recombinant CHIP constructs at increasing concentrations, 30 minutes at room temperature; one site/total binding fit with Bmax constrained to 100. As to conditions: both partners purified. In general terms: Fluorescence polarisation rises when a labelled molecule tumbles more slowly, as on binding a larger partner.

The target in assay [6] is T5, recombinant full-length CHIP-WT (UniProt Q9UNE7 1-303).
T5 sequence (looked up): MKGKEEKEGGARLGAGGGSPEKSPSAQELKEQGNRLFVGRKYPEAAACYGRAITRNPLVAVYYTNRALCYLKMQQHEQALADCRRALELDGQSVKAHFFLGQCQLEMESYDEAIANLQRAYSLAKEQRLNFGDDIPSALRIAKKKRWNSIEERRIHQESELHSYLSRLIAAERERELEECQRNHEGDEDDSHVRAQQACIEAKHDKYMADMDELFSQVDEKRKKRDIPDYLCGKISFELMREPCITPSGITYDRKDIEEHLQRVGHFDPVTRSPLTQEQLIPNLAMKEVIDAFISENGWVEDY
The assay is described as above. As to conditions: both partners purified.

The target in assay [7] is T6, recombinant full-length CHIP-G132N (UniProt Q9UNE7 1-303, G132N).
T6 construct: CHIP, full-length recombinant protein with G132N
T6 sequence (looked up): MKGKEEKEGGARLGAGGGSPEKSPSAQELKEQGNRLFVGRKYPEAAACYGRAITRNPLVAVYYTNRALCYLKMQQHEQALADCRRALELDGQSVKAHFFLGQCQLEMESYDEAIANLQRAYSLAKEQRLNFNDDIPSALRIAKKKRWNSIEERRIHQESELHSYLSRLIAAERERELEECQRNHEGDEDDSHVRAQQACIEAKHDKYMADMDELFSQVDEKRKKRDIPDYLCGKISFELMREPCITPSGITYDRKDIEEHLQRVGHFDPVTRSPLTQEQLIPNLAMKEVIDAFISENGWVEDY
The description is as above. The settings on record: both partners purified.

Square brackets hold non-standard residues; d marks the D form. Ends that are not written are not given here. * marks the point of attachment. FITC = O=C1OC2(c3ccc(O)cc3Oc3cc(O)ccc32)c2ccc(NC(=S)*)cc21; Biotin = O=C1N[C@H]2[C@H](CS[C@H]2CCCCC(=O)*)N1; pT = C[C@@H](OP(=O)(O)O)[C@H](N)C(=O)O; Ahx = NCCCCCC(=O)O

On to “HSP70-T636A: phospho-null version of HSP70”, for which the “percent change of HSP70 level from time 0” value is “+31%” in [1] (cycloheximide +MG132, 6 h (column from layout)) and -84% in assay [1] (cycloheximide, 6 h, without MG132 (column from layout)).

B1: amino-terminal biotin-labeled HSP70 tail peptide biotin-GSGSGPTIEEVD (peptide)
peptide: Biotin-GSGSGPTIEEVD
notes: C-terminal tail of HSP70; loaded on streptavidin sensors for BLI; also called biotin-EEVD; source: synthetic peptide, bought: Lifetein
Regarding B1, the binding result in the assay with CHIP-TPR G132S and in the assay with CHIP-TPR N65S was “binds” in each case.

B2: amino-terminal biotin-labeled pT-HSP70 tail peptide biotin-GSGSGP(pT)IEEVD (peptide)
peptide: Biotin-GSGSGP[pT]IEEVD
notes: loaded on streptavidin sensors for BLI; also called biotin-pEEVD; pEEVD; source: synthetic peptide, bought: Lifetein
As to B2, the binding result in the assay with CHIP-TPR G132S and in the assay with CHIP-TPR N65S was “binds” in each case.

B3: phosphorylated HSP(C)70 peptide GP(pT)IEEVD (peptide)
peptide: GP[pT]IEEVD
notes: used for co-crystallisation with CHIP-TPR; also called pEEVD; pT-HSP70 peptide; source: synthetic peptide (Lifetein or Genscript)
On to B3, for which the binding result with CHIP-TPR (21–154) [2] is given as “binds”.

B4: unphosphorylated HSP(C)70 peptide GPTIEEVD (peptide)
peptide: GPTIEEVD
notes: C-terminal tail of HSP70 (T636 is the third residue); used for co-crystallisation with CHIP-TPR; also called HSP70 peptide; HSP70 tail; source: synthetic peptide (Lifetein or Genscript)
For B4, the binding result in the assay with CHIP-TPR (21–154) [2] is recorded as “binds”.

B5: CHIP-WT: wild-type CHIP, E3 ligase co-chaperone (protein)
chain: MKGKEEKEGGARLGAGGGSPEKSPSAQELKEQGNRLFVGRKYPEAAACYGRAITRNPLVAVYYTNRALCYLKMQQHEQALADCRRALELDGQSVKAHFFLGQCQLEMESYDEAIANLQRAYSLAKEQRLNFGDDIPSALRIAKKKRWNSIEERRIHQESELHSYLSRLIAAERERELEECQRNHEGDEDDSHVRAQQACIEAKHDKYMADMDELFSQVDEKRKKRDIPDYLCGKISFELMREPCITPSGITYDRKDIEEHLQRVGHFDPVTRSPLTQEQLIPNLAMKEVIDAFISENGWVEDY
B5: the “ubiquitination of HSC70” value in the assay with HSC70 is on record as “not different”.

B6: N-FITC-Ahx-GSGP(pT)IEEVD (peptide)
peptide: {FITC-Ahx}-GSGP[pT]IEEVD
notes: tracer of the fluorescence polarisation assay; also called pEEVD; phosphorylated EEVD peptide; source: synthetic peptide (Lifetein or Genscript)
B6: the Kd is 96 µM in assay [3] and 46 µM in [4]. For the same molecule, the binding result (in the assay with CHIP-TPR (21–154) [5]; in assay [6]; in [7]) was “binds” in each case.
